# Assay results: the domain aggregation screens of Martell et al. (2025)
# Experiment: soluble fraction after stress (log2 fold change); higher = more stays soluble; pooled small domains, quantitative proteomics
# Conditions: stress: pH 4
# Outline: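 High-throughput quantitative proteomics was run on pooled custom libraries of small protein domains following pH 4 stress. Fold changes are on a log2 scale; higher values mean more of a domain remained soluble. The fold change in soluble amount is taken as a measure of aggregation propensity.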
row,Sequence,soluble fraction (log2)
1,HMVINKRELNVLSIYSRGSEKRAIILFPTGQTKLVKVGDTLNGGRVAAIGTTEIRYIKGGNNLVLKIPQ,≥ 0.43
2,HMNPGQIIRKLRQDQGMTLAVLAKYANLDPGNLSRIERDDLNISFNLLEKLSLILNVSPIVFFH,-0.0716
3,HMIQAGDLVFIWNPKKGDNFLIKVTPGMSQGTHFGQIKHTELMEREYGEGIVTPKGEVYYLLRPTLAGYTR,-1.3
4,HMKPDIETQLKKYRYKVSVSKKIKPYMVFSDKTLSELLTKSPTNLKELEDINGFGPVKVQEYGAAILEILK,0.148
5,HMHAQDTLMTRAGETRTVKILEIGLEEIKYRIWGLDDSPVIVIDKIDVKQIVFSNGEKMTIVQ,-1.86
6,HMASEVEVPNVYGMPSSLAERELSAVGLLADYRSRTGTGQQPGTVVHVKPDAGTVVSRGSTVVLFIA,0.138
7,HMRLEYLVDVEEISIKEYLMLLGLSRRLARKIKLYGKMYINHQEAFNYHLVKKGDLLTIEFDE,-2.21
8,HMDVKQSAAGVAGRIRFELNRTLTGQGHEKFTSASQAIGPRPAAELARRLFNSGSVVGVHVFANIVTVDLL,0.088
9,HMNQGKLIEMLQEMKEIAHSQNNYLTKNEIANYLGDTVLSKEQLQAVYHYLGENHIEVEGYVYIP,-0.51
10,HMSTPERQEVLDILKRQGEMTPLQIAGQISRTSKSVSNILSKLKREGFVANGAKYGSWVSTES,0.0778
11,HMAGISQGLAENVERRITTLLREQKEVPVHDIDFPGISRETVGQVLHQMVQEEKLLLDDGMISLSPNQ,-0.229
12,HMIQADFIPQVEQRLADRGLSMSGDVMAAFLDRAGYGLRHVSNEIEKLSLYLGDRKKVTVEDVVQMVAPVR,-0.415
13,HMTYSAFITARNKRIAEEYSVLLDSLNISNNVIYRLGSWVVEVNVSDHSRAIDEIYSYERSGRIDKV,-0.534
14,HMEWNREQLEQIVLQHIRKHGFITRATYTELTGRLKNSALADLKSFAAEGIIKRVGRGNQMHFIVPL,0.221
15,HMPDPLVEIRSAVHSNYAGMIAMLGADNRVYLGREEHYSYQDGQPGQYDNRDGSLLFVSDQPDIYYFL,-1.21
16,HMGVLGVDALAAAAEVSVDTVRYYQHLGLLEPPRREGRRAVYGPSHLARMGEIRRLAAAGFTLDQIRQLAE,-1.62
17,HMPAPMISIQLNGEPRNVQPGISIAALVREIGLEPAKVAVERNREIVPRSTLGDVLIEAGDQLEIVHFVG,0.0156
18,HMANNPISMIKIRQILRLHIQGRSKLQIAAQTGISRNTLKKYLKEFEASKLTYDEISELSDKDLEDLFIK,0.225
19,HMNSDQMKEHLDNLVDMAKKNDNTLIDTEIVNYFVGKPDIELNTDMMTKIFDYLDEHHVAVLS,-1.85
20,HMRDTDAEVTYKLNEPFKTMGSVSVEGKVLEFAGSKWFARAAEFASNTEVYPLAKNRVRLTFTFHGLTAP,0.0243
21,HMESYNIVEQVLTKKILSKGNTLAKLSNEFDGLVMLVIRGDEFIIPNGETLLFEKDILVINNGP,-1.2
22,HMDTGPISGQVEADRVEVHGHLDGKISAQNVVVGQTGVVKGDIEFGENLRTEEGADIEGYIK,0.22
23,HMFDGYQWLKRDIIRGVYQPEEKLRMSLLTNRYGLGVGPLREALSQLVAEHLVTVVSQKGYRVAPM,-0.0817
24,HMKEKIIKEPYDLFTTDKIGQALEVQALLARQGIKVQRRVDGTKSTLFLENYTQSEKDQALLAVVRSGIV,0.167
25,HMSSLQFVTLTLMEGHAWVGREIQELLMPPQMRIALIRRGDSQVIPKGSTILESADELILSAIEYQG,-2.51
26,HMPPSVAETLKRLRRHKSLSLEELAQMSGVSRSMLSQIERDATNPTVATLWRITAALGVSIDEVLGV,-0.893

row,Sequence,soluble fraction (log2)
1,HMKVDLSEEEKTILELLKKESPQELETIKAASTLSNKKWDKAIKGLRKHNLAKVNKTDDGLFVELE,0.105
2,HMPPDIKVVGVTVASDPRASFAMLSSNGKTLSYRVNDLIEGTEYHLIKVEAAAITIATAGGQSTQIAF,-0.156
3,HMSDAKKRAFSKDEILYSLKNRPFTSFDIESLFDDESKKTFIGLLDKGEISEKKVAGTIFYYLR,-0.461
4,HMRSNQKVSQIAISQVLPGMVTAKNVYSRNDQLILNRETTLDSTKIAKIMFYAIESIYVYEPE,-0.6
5,HMVAGQDPVKRQQILDGAKRVFLGVGFDAASMNDITREAGVSKGTIYVYFGSKEELFGALIDR,-0.807
6,HMDGMNEELYQKFFALVGNPDEGKRISQAKAAQALGYSSAVVSAYKNRTYNGNIKAFEDAVQAWLKREERR,0.141
7,HMITPNQAAVTLKVSTSTLRRWSSDFEPFLSPRKGVKRLYTIEDIATLKRIQGLYKQGMNTAQVQA,-0.0332
8,HMKMSVKNEIISLLEKNRDTSISGQVIADSLNVTRAAVWKAIKVLKEEGYNIDGTPNKGYILLGNN,0.0991
9,HMATGGKIYIGMNDNGKVVGVSDADKLLEDIPNKVRDVLGIIVDVNLLEENGLKYIEIDVPPYSN,-0.477
10,HMPRNMTFAIRGEYITLDALLKAVGAADSGAQAKHRIAEGEVTVDGVVETRKTRKLRGGETVVVDDLAVVL,-1.4
11,HMNTISEADAKRIALERAGLTAADYVKVDYDQDDNEYEVEMRSGNTEYEVKISGSTGAVLEYDSETD,-0.0384
12,HMLTEKEEEVMQILWDNGPLFVREILEFYPDPKPHYNTVSTVIRVLEEKNFASHKAYGNTYQYFP,0.18
13,HMDDFSETLLQYIKEKGGHISLNDKTDAGVIYETFGVSKKTFKKAVGDLYKKRLIVLEDTGIRL,0.0848
14,HMKLSNELLNAIMLIKKGIRNPTSLAQRLNTDTQYAKNLLEHLKMTGLINEHSRLTSRGLDIFHQK,-0.295
15,HMSKITNALLMMKLLSNGKVYSVKELSEELGVTERMVRNYKEQLEMSGYIIESFKGPGGGYFINKN,0.207
16,HMAHRYQQIADDLGRRVEAGEFAAGRLLPSEATLSGQYKASRVTVRKALEALRTDGLVESRQGFGWFVAAD,0.262
17,HMPAYYQKEAVLDGRASVFAYERDPSSWYFKQLIPGTKKYRTKKIQGATTLEQAKSQALDIALGLRDEP,0.243
18,HMRMLLEERLDEIVKIVNERGSISNQELVKMFGASESTIRRDITTLANDNRVIRVHGGAMSVVS,-0.387
19,HMIPDLPAIGENLYRERKRQQLSMAELAAASGISKAMLSQIEADKVNPTIATLWKIAHALHVDLESLISGG,-0.0815
20,HMLQESDPEALRGIVKSVLVDHAAVAEEYRAGKQSVLQFLVGQGMKASKGAGNPGLIRDLMLEEL,-0.184
21,HMKISELAKKVIASGRVTQWAKHPHIYFVNGMRKVAIELDVNGVFSISMRYYPYDPADRELVENLIRGD,-0.572
22,HMRLADHVVEKLLALVQDRGLQPGQKLPAERQLAEELGVSRTSVREAIQKLTSQGVLSARRGDGTYLQS,0.402
23,HMSEKLLTLNEISEKLRVSRHTVQAWVSPSSPNHRPEFSSLARHAGRKTVFLESDVDAWLAQRR,-0.385
24,HMYHKKEKAQAANIEERIMILLSDGKHHHITEIKAIYVDEVITLNILEEMLAEEKVIIEGDMIMLVE,-1.47
25,HMEIFYGDDRVYTVSLHGQNNFPFRKKTSDFDYGFEDGTGDEEYLRVLDVTLSRLENEQFDLLFFQAGV,-0.842
26,HMGIAWGMLREQVAASDVSYRSEVLDILDRTPVWIYDAEGKIVDGRKKRLMDLQGGEPYRHMLEHFFPDLR,-1.96

row,Sequence,soluble fraction (log2)
1,HMEEVVIPDLAGLTEEEATKVLMAKELKLKVSGSQHSDIEKGLIISQDPPAGEKGAKNSQVAVVTSSG,-0.000599
2,HMGGEEPYGSGSLRLAAGAVVPSGYTIKGNEDSMLYHTTESPWYKQTIAEVWFNAESAAQRAGFTRWDAKD,-0.672
3,HMQDTYQVKLLTNLNIRKSPNGTIVQKGGAKKGIIYTIVETSGTWGRLKSNAGWISVSDKYVTK,0.102
4,HMKIMSLSERHQKILELLKVNGIVSVNSLSRQLNVSSVTIRKDLGLLEEKKLLYRSHGGAIQID,-0.213
5,HMSKKAIVINLLKRPDGASLKDIMQATYWQAHSVRGFISGSLTKKMGLNVESFKRPDGERAYRIN,0.22
6,HMGDDYFTILGIERDATTDEIRSAYRRLSKKIHPDAQGSSALFRQVQEAYETLIDPSSRARYVAELNASQG,-0.0836
7,HMTDLDDFAARLKTLTDGRASTPRLRDGVMMLSLDVGGLGPDQRDGLIAAIREGGLTVPGVSDVRIVMT,0.22
8,HMNGAITLRVRPSDEGKRLDVFVVSQLTGYTRSFVAGLIGDRHFLVNGQPKKPGYRIKSSDTISGVIPAPA,0.157
9,HMNNYFPAYKGSATSIAPALKQMGVNNSYAYRSKIAAVNNITGYRGTPAQNTQMLNLLKQGRLIK,-0.156
10,HMKMNRELNQRQIKMLDYLSVNPKTTRKQYTKMMGISFMTSYRDIQELIDKAYIISKGQGRGTYYILAN,-0.0196
11,HMAKRMRNPNGYGSIVKLSGNRRNPYMVKVNTHMDERYYPVYDILGYYPTWADASIALAKYNDDPYNVS,0.0269
12,HMDYIGIQAAKEAALKDADISSEQAVFTMAELDNKNNIFYYQIMFTENGTEYRYDIDALTGVIIEKNHFF,-0.0659
13,HMNIMAQDWISSPMGPISFKSNQHGLVKIGWGEVPRENTEQPNLEFTRKWLVDYFEGKASPLPYF,-1.55
14,HMPPTEQVYRSHVPPQYDGFPIEKYFTTRFSYQDVEEWSRQILAGKIEVNGKTALIGQILSASDLTVTRA,-0.811
15,HMMTDAEKTFIFFSHLSSVEDHIAYGDKQFYMSLFWQHENKRELSSSQLYHLERLYNKYSMEEIEKKEEFS,-1.07
16,HMGSEISLNAFNIPKGSVSVTAGGTKLVENQDYTVDYTLGRIKILNEGILNSGVPIQVNFENNTLFN,-0.087
17,HMTEPKRIVDHWQPSDDVYDILRMSHIDLDFARSLLPEFIVYWKDSSQTHTSWNSKFLQHAKYHWAKRHQL,-1.21
18,HMVKLDDLTGQDKASAEAAISNLGLKYSEQQEYSDEIEEGKVTRTDPGAGSTSLKAGDTVTVYISRGPE,-0.348
19,HMRTFFEIEQLKAYVGEEIQVKFEADSHKQTVLGKLISISEDFIEIENSKKGNLKISLDNYLTSKLIY,-0.468
20,HMGRLTTKIVLYDRIENIVPERRKELVADIEKRIGVKVEVLEIGHVDFVRDAAWLKVSYYLAPGE,-1.35
21,HMQITDSGAIETIIDKIIADNPGQVTQYLSGKDKVFGFFVGQTMKASQGKANPAEVNKILQEKLK,-0.029
22,HMRSPVDALSNRELQVLQMVGRGLSSRQVAEALHLSVKTVEAHRQRIKGKLGLRTGAQLVQFAANWVTG,-0.182
23,HMEPLPDIPRGTRVSHQTAPADGDMPERRETGWTMTEPIRAQDGLAYVGVSVYGRGVVMLPVNSLSII,-0.557
24,HMEISEILNPPLVTAMAERYPEVDVSYYRDKYILYYESREHKITDHRRNFEKWLLVESQKEEN,-1.66
